{
  "source": "paper PMC11190351",
  "about": "(Plant Direct, 2024)",
  "proteins": {"B1": {"name": "Chlamydomonas reinhardtii alpha amylase 2 (AMA2), full-length recombinant enzyme (enzyme, UniProt A0A2K3DGK5 1-706, looked up)", "chain": "MDRSLLSRTSPRMQLGRPQQLPPPTVPLAQVPRLQRRCVVGSRVCQPVVAVRPGRASAGRGGRLVVSSVDMSNSPLSSMDAGEGLDIMFDNNSDAECTVVTVEGKDKAHLLMSLTGGFSSAGLTVISASITSDDGRVLDVFRVQTADGKKVPEEQFPSVREHILSVTATSSRSSMPAIYGIVAAAEVERLKPLRSQSTQNDVDALELAAAEMTQAVAELVATERDIIRMRASNADARTLQTKEANRTEAAAGLERKMAAMQAVLAARRNLATEPEKPKSPTEKLLETLKPPTPMRAAAGAGSGSGSEILLQAFNWESHRQKLYKQLMGRVKDISDAGFTGVWMPPPSDSVSPQGYLPRDLYSLDSAYGSEAELRELIAAFHQNNIKVIADIVVNHRCANSQGSDGKWNKFGGRLAWDASAICSNNPSFGGRGNPKQGDDYAAAPNIDHSQERIRNDIVQWMKYLRNSIGFDGWRFDFVRGYLGSYCKQYIDETVPAMAFGEYWDSCEYTDGVLNYNQDAHRQRTVNWCDSTGGTSAAFDFTTKGILQEAVGRREYWRLVDSQGRPPGVMGMWPSRAITFIDNHDTGSTLNHWPFPSRNLPEGYAYILTHPGTPCVFYDHFYQEENNLRKIILDLLKVRRRNGLNARSKVVMKKSAADVYAAMIDDKVAVKLGPGDWSPNQSGIKVNGKELKVAASGFQFAVWEGQH"}},
  "target": "the molecule itself",
  "experiment": "SEC",
  "data": [
    {"protein": "B1", "values": [
      {"measurement": "stoichiometry N", "value": 2}
    ]}
  ]
}
